The record followed here is patent US20250353930A1 (EXCELLERGY, published 2025).

To fix the notation:
T1: polyclonal human IgE (human)
T1 construct: Used at 10 nM to sensitise Hoxb8 mast cells overnight; also called surface IgE on Hoxb8 mast cells
T1 constant: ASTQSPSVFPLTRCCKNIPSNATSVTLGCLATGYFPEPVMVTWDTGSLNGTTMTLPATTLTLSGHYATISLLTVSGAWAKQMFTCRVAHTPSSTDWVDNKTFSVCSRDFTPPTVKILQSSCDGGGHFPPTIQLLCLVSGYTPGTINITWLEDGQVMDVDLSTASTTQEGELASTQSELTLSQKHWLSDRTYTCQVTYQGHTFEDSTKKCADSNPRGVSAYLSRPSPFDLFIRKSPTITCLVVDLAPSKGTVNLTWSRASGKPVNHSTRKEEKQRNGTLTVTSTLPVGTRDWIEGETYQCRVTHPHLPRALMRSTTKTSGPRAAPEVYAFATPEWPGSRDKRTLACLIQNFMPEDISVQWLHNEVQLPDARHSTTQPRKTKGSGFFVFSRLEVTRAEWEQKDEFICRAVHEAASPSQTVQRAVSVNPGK

B1: C6 (antibody, human IgG1, kappa)
heavy: not shown
light: DIQLTQSPSSLSASVGDRVTITCRASKSVDADGDSYMNWYQAKPGRHPKLLIYAASYLESGVPSRFSGSGSGTDFTLTISSLQPEDFATYYCQQSHEDPYTFGQGTKVEIKRTVAAPSVFIFPPSDEQLKSGTASVVCLLNNFYPREAKVQWKVDNALQSGNSQESVTEQDSKDSTYSLSSTLTLSKADYEKHKVYACEVTHQGLSSPVTKSFNRGEC
notes: Whole IgG, comparator; also called Comparator 6; Comparator_6
B2: C4 (antibody, human IgG1, kappa)
heavy: not shown
light: DIQLTQSPSSLSASVGDRVTITCRASKSVDADGDSYMNWYQAKPGRHPKLLIYAASYLESGVPSRFSGSGSGTDFTLTISSLQPEDFATYYCQQSHEDPYTFGQGTKVEIKGGRTVAAPSVFIFPPSDEQLKSGTASVVCLLNNFYPREAKVQWKVDNALQSGNSQESVTEQDSKDSTYSLSSTLTLSKADYEKHKVYACEVTHQGLSSPVTKSFNRGEC
notes: Whole IgG, comparator; also called Comparator 4; Comparator_4
B3: C5 (antibody, human IgG1, kappa)
heavy: not shown
light: DIQLTQSPSSLSASVGDRVTITCRASKSVDADGDSYMNWYQAKPGRHPKLLIYAASYLESGVPSRFSGSGSGTDFTLTISSLQPEDFATYYCQQSHEDPYTFGQGTKVEIKGRTVAAPSVFIFPPSDEQLKSGTASVVCLLNNFYPREAKVQWKVDNALQSGNSQESVTEQDSKDSTYSLSSTLTLSKADYEKHKVYACEVTHQGLSSPVTKSFNRGEC
notes: Whole IgG, comparator; also called Comparator 5; Comparator_5

The target in this test is T1, polyclonal human IgE. Put plainly: flow cytometry of surface IgE on Hoxb8 mast cells with human FcεRI, 20 h; dissociation of IgE from FcεRI. (A flow cytometer gives signals particle by particle.)
What is called IC50 is the point on the concentration scale where inhibition reaches its midpoint. Higher therefore signals weaker potency in that assay. Turning to B1, the IC50 came to 2010 nM.
The figure for B2 is 815 nM.
Molecule B3 came in with an IC50 of 1070 nM.
